Our source for the Kd for block of KCa current, whole cell patch clamp and IC50 as peptide blocker of the channel values is patent EP1012281B1.

A value given as a limit tells only on which side of the number the result lay.

For test [1], the target named is human lymph node derived calcium activated potassium channel polypeptide hKCa4, transiently expresse (human). Nature of the test: cell-based or functional assay.
For test [2], the target named is cloned hKCa4 (SEQ ID NO:3) (human). In words: cell-based or functional assay.

On to “apamin (from UniProt P01500 28-45) (peptide)”, for which the Kd for block of KCa current, whole cell patch clamp in test [1] is > 1000 nM. Still for that read-out and setting: in the case of “iberiotoxin (from UniProt P24663 1-37) (peptide)” it was > 1000 nM; in that of “kaliotoxin (from UniProt P24662 1-38) (peptide)”, > 1000 nM; in that of “scyllatoxin (from UniProt P16341 1-31) (peptide)”, > 1000 nM. QFTNVSCTTSKECWSVCQRLHNTSRGKCMNKKCRCYS (modifications not checked) [charybdotoxin, P13487 23-59] registered an IC50 as peptide blocker of the channel in test [2] of 5 to 10 nM.
